From patent publication US20220056104A1 (Janssen / Centocor, published 2022)
Where a chain is given by its changes, count along the chain named. Numbers in names are those of the source. Blank lines part the entries; values can stand above or below the binder they belong to.

What was measured:
[1] = target: T1, Recombinant DR3-Fc (R&D Systems, cat. #943-D3) (UniProt Q93038 25-199, limits assumed); test: ELISA, DR3-Fc immobilized
T1 construct: dimeric MW~92 kDa; also called DR3 receptor; Fc-DR3; not shown: Fc part of the bought fusion
T1 sequence (looked up): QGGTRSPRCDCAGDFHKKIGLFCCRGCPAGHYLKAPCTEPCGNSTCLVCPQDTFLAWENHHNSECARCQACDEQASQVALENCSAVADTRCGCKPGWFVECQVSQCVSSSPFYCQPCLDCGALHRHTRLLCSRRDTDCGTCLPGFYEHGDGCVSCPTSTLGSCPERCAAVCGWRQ
Procedure: All ELISA-based measurements were collected in triplicate, and error values report the standard error between measurements. Recombinant DR3-Fc (R&D Systems, cat. #943-D3), dimeric MW˜92 kDa, was non-specifically immobilized onto plates (Nunc maxisorp, cat. #436110) in 100 μL DR3-Fc, diluted to 10 μg/mL onto a 96-well White Maxisorp plate (Nunc, cat #436110) (O/N, 4° C.). Plates were block for 1 hour at room temperature with 250 μl/well of casein buffer and blocking buffer was removed. 50 μL of TL1A variants were diluted in StartingBlock PBS (Thermo Fisher Scientific), at 25 μg/mL, diluting 3× over each well, according to the plate map description for 20160623) per well on a 96-well White Maxisorp plate (Nunc, cat #: 436110) (overnight at 4° C.).
Plates were washed three times with TBST. 100 μl/well polyclonal rabbit anti-human TL1A-biotin antibody (diluted 1:1000 in Starting Block PBS) was added and plates were incubated for 1 hour at room temperature with shaking at 150 rpm. TL1A-biotin antibody was removed and 100 μl/well streptavidin-HRP conjugate (diluted 1:10,000 in Starting Block PBS) was added to plates. Plates were incubated for 1 hour at room temperature with shaking at 150 rpm. Plates were washed three times with TBST. 100 μl/well POD Chemiluminescence substrate (Roche, cat #: 11582950001) was added immediately prior to reading plate luminescence using a Molecular Devices M5 plate reader with a delay setting of 100 ms.
Variants of TL1A were generated and tested for binding to DR3 and DcR3 by ELISA as described.

DcR3 = target: T2, DcR3 (UniProt O95407 30-300, limits assumed); test: ELISA, DcR3
T2 construct: the construct is not described; also called decoy receptor DcR3; TNFRSF6B
T2 sequence (looked up): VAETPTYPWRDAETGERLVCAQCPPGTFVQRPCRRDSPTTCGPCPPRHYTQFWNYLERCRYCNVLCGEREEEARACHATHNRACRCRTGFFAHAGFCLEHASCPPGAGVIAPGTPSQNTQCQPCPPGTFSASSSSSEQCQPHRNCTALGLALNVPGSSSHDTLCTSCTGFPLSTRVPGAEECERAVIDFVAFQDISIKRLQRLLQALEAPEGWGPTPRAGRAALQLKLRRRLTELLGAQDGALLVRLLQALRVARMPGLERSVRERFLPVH

B2: TL1W135 (His-TEV-TL1A K240A) (ligand)
chain: HHHHHHENLYFQGLKGQEFAPSHQQVYAPLRADGDKPRAHLTVVRQTPTQHFKNQFPALHWEHELGLAFTKNRMNYTNKFLLIPESGDYFIYSQVTFRGMTSECSEIRQAGRPNKPDSITVVITKVTDSYPEPTQLLMGTKSVCEVGSNWFQPIYLGAMFSLQEGDKLMVNVSDISLVDYTAEDKTFFGAFLL
notes: also called TL1W135 (K240A)
EC50 (DcR3): 8.5 nM
Rel EC50 (DcR3): 1.9 ratio (head: nM)

B4: TL1W138 (His-TEV-TL1A K240D) (ligand)
chain: B2 chain with A182D
notes: also called TL1W138 (K240D)
EC50 (DcR3): 59.5 nM
Rel EC50 (DcR3): 12.9 ratio (head: nM)

B6: TL1W134 (His-TEV-TL1A T239K) (ligand)
chain: B2 chain with T181K, A182K
notes: also called TL1W134 (T239K)
EC50 (DcR3): 21.5 nM
Rel EC50 (DcR3): 4.7 ratio (head: nM)

B7: TL1W89 (His-TEV-TL1A R156Y) (ligand)
chain: B2 chain with R98Y, A182K
notes: also called TL1W89 (R156Y)
EC50 (DcR3): 8 nM
Rel EC50 (DcR3): 1.7 ratio (head: nM)

B9: TL1W83 (His-TEV-TL1A E120K) (ligand)
chain: B2 chain with E62K, A182K
notes: also called TL1W83 (E120K)
EC50 (DcR3): 2.2 nM
Rel EC50 (DcR3): 0.5 ratio (head: nM)

B10: TL1W42 (His-TEV-TL1A F114A) (ligand)
chain: B2 chain with F56A, A182K
notes: also called TL1W42 (F114A)
EC50 [1]: 77.7 nM
Rel EC50 [1]: 3 ratio (head: nM)
EC50 (DcR3): 11.4 nM
Rel EC50 (DcR3): 2.5 ratio (head: nM)

B13: TL1W32 (His-TEV-hTL1A 72-251 Y188A) (ligand)
chain: B2 chain with Y130A, A182K
notes: also called TL1W32 (Y188A)
EC50 [1]: 565 nM
Rel EC50 [1]: 21.6 ratio (head: nM)
EC50 (DcR3): 7.6 nM
Rel EC50 (DcR3): 1.7 ratio (head: nM)

B14: TL1W30 (His-TEV-hTL1A 72-251 N112E) (ligand)
chain: B2 chain with N54E, A182K
notes: also called TL1W30 (N112E)
EC50 [1]: 16.4 nM
Rel EC50 [1]: 0.6 ratio (head: nM)
EC50 (DcR3): 4.7 nM
Rel EC50 (DcR3): 1 ratio (head: nM)

B17: TL1W108 (His-TEV-TL1A S187A) (ligand)
chain: B2 chain with S129A, A182K
notes: also called TL1W108 (S187A)
EC50 [1]: 39.1 nM
Rel EC50 [1]: 1.5 ratio (head: nM)

B19: TL1W47 (His-TEV-TL1A E241A) (ligand)
chain: B2 chain with A182K, E183A
notes: also called TL1W47 (E241A)
EC50 [1]: 260 nM
Rel EC50 [1]: 9.9 ratio (head: nM)
EC50 (DcR3): 1310 nM
Rel EC50 (DcR3): 285 ratio (head: nM)

More lines, now with the values ahead:

EC50 [1]: 30.7 nM
Rel EC50 [1]: 1.2 ratio (head: nM)
EC50 (DcR3): 16.4 nM
Rel EC50 (DcR3): 3.6 ratio (head: nM)
B1: TL1W40 (His-TEV-TL1A L123S) (ligand)
chain: B2 chain with L65S, A182K
notes: also called TL1W40 (L123S)

EC50 [1]: 204 nM
Rel EC50 [1]: 7.8 ratio (head: nM)
EC50 (DcR3): 7.1 nM
Rel EC50 (DcR3): 1.5 ratio (head: nM)
B3: TL1W79 (His-TEV-TL1A R103E) (ligand)
chain: B2 chain with R45E, A182K
notes: also called TL1W79 (R103E)

EC50 [1]: 25 nM
Rel EC50 [1]: 1 ratio (head: nM)
EC50 (DcR3): 3.3 nM
Rel EC50 (DcR3): 0.7 ratio (head: nM)
B5: TL1W33 (His-TEV-hTL1A 72-251 R103A) (ligand)
chain: B2 chain with R45A, A182K
notes: also called TL1W33 (R103A)

EC50 (DcR3): 10.8 nM
Rel EC50 (DcR3): 2.3 ratio (head: nM)
B8: TL1W133 (His-TEV-TL1A T239F) (ligand)
chain: B2 chain with T181F, A182K
notes: also called TL1W133 (T239F)

EC50 (DcR3): 16.9 nM
Rel EC50 (DcR3): 3.7 ratio (head: nM)
B11: TL1W130 (His-TEV-TL1A Y238R) (ligand)
chain: B2 chain with Y180R, A182K
notes: also called TL1W130 (Y238R)

EC50 [1]: 207 nM
Rel EC50 [1]: 7.9 ratio (head: nM)
EC50 (DcR3): 72.2 nM
Rel EC50 (DcR3): 15.7 ratio (head: nM)
B12: TL1W43 (His-TEV-TL1A Y188S) (ligand)
chain: B2 chain with Y130S, A182K
notes: also called TL1W43 (Y188S)

EC50 (DcR3): 5.7 nM
Rel EC50 (DcR3): 1.2 ratio (head: nM)
B15: TL1W33 (E241L) (ligand)
chain: B2 chain with A182K, E183L
notes: no entry of the listing holds E241L; also called E241L variant of His-TL1A

EC50 [1]: 22.6 nM
Rel EC50 [1]: 0.9 ratio (head: nM)
EC50 (DcR3): 5.7 nM
Rel EC50 (DcR3): 1.2 ratio (head: nM)
B16: TL1W28 (His-TEV-hTL1A 72-251 E190G) (ligand)
chain: B2 chain with E132G, A182K
notes: also called TL1W28 (E190G)

EC50 [1]: 34.4 nM
Rel EC50 [1]: 1.3 ratio (head: nM)
EC50 (DcR3): 50.9 nM
Rel EC50 (DcR3): 11.1 ratio (head: nM)
B18: TL1W81 (His-TEV-TL1A K111S) (ligand)
chain: B2 chain with K53S, A182K
notes: also called TL1W81 (K111S)
